The record followed here is patent US20220395579A1 (Daiichi Sankyo, published 2022).

For one test, the target named is T1, human CLDN9 (human, UniProt O95484 1-217).
T1 construct: It was expressed on 293T cells from human CLDN9/pCMV6-Entry bought from OriGene; also called claudin-9
T1 sequence: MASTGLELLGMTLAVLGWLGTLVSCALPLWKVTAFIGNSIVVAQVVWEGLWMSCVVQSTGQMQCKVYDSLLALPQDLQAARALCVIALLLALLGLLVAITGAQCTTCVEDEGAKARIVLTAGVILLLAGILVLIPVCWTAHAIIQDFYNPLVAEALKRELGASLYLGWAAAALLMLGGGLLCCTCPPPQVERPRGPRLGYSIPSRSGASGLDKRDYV
In words: flow cytometry on 293T cells transiently transfected with human CLDN9. As to the method: (§1) The binding activity of the humanized anti-CLDN6 antibody produced in Example 136 to human CLDN6 and its family molecules, CLDN3, CLDN4, and CLDN9, was evaluated by using a flow cytometry method. […] The cells were washed with Dulbecco's phosphate buffered saline (Sigma-Aldrich Co. LLC) containing 5% fetal bovine serum (Hyclone) (hereinafter, referred to as 5% FBS-containing PBS), and FITC AffiniPureF (ab′)₂ Fragment Goat Anti-Human IgG (H+L) (Jackson ImmunoResearch Laboratories Inc.) 150-fold diluted with 5% FBS-containing PBS was then added thereto, and the cells were suspended and left to stand at 4° C. for 30 minutes. After washing with 5% FBS-containing PBS, detection was carried out by using a flow cytometer (FC500; Beckman Coulter, Inc.). Data analysis was carried out by using FlowJo (Tree Star, Inc.), and mean fluorescence intensity (MFI) of FITC, which indicates the amount of the binding antibody, was calculated. […] In each graph in FIG. 42, the abscissa represents antibody concentrations and the ordinate represents MFI.

In a further test the target is T2, human CLDN4 (human, UniProt O14493 1-209).
T2 construct: whole, on cells; Transfection was confirmed with an anti-FLAG antibody, so the construct may carry a tag
T2 sequence (looked up): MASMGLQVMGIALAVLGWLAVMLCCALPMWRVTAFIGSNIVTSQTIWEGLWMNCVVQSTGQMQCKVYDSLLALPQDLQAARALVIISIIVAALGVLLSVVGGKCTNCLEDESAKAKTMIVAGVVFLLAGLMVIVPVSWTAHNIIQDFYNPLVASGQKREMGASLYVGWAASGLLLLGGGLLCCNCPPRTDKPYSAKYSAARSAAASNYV
Kind of test: flow cytometry on 293T cells transiently transfected with human CLDN4.

Test [1] has as its target T3, human CLDN6 (human, UniProt P56747 1-220).
T3 construct: In the flow cytometry it was expressed on 293T cells from human CLDN6/pCMV-Entry bought from OriGene; It was also expressed on CHO-K1 cells by cDNA transfection, and the endogenous protein was immunoprecipitated from NTERA-2 cell lysate; also called claudin-6; hCLDN6
T3 sequence: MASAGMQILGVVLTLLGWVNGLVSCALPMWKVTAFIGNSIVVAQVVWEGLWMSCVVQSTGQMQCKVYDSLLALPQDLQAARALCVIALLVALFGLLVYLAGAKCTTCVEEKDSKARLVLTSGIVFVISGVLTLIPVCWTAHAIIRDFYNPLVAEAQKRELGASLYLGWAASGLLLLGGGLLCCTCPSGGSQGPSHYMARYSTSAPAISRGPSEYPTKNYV
In words: immunoprecipitation from NTERA-2 cell lysate with the antibody, SDS-PAGE, mass spectrometry of the 18 kDa band.
Protocol: 2×10⁷ NTERA-2 cells were collected and washed twice with PBS. The cells were collected by using a cell scraper, and centrifuged at 1500 rpm for 5 minutes. After the supernatant was removed, the cells were resuspended in 2 mL of the lysis buffer, and treated at 4° C. for 30 minutes. The resultant was centrifuged (13000 rpm, 20 minutes, 4° C.) to prepare a cell lysate. Protein G Sepharose/lysis buffer (50% slurry; 180 μL) was added to the cell lysate, and the resultant was rotated at 4° C. for 30 minutes and then centrifuged at 4° C. for 1 hour, and the supernatant was collected. […] The Protein G Sepharose was washed six times with the lysis buffer (1 mL), and then resuspended in 1×SDS sample buffer. After the suspension was treated at 100° C. for 5 minutes, the solution was collected as a sample for SDS-PAGE. SDS-PAGE was carried out in the same manner as in 2-2), and the electrophoresis gel was stained with CBB. The part corresponding to 18 kDa was cut out of the electrophoresis gel, and subjected to mass spectrometry.

For the next test, the target named is T4, human CLDN3 (human, UniProt O15551 1-220).
T4 construct: whole, on cells; Transfection was confirmed with an anti-FLAG antibody, so the construct may carry a tag
T4 sequence (looked up): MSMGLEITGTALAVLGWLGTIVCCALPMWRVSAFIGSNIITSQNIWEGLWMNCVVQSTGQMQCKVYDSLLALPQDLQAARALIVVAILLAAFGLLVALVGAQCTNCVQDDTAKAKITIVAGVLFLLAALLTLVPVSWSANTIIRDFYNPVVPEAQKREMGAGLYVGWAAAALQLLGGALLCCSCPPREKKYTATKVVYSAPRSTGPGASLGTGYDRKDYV
Kind of test: flow cytometry on 293T cells transiently transfected with human CLDN3. (In general: A flow cytometer gives signals particle by particle.)

For test [2], the target named is T3, human CLDN6. Kind of test: FACS on CHO-K1 cells transfected with human claudin-6 cDNA.
For test [3], the target named is T3, human CLDN6. Kind of test: flow cytometry on 293T cells transiently transfected with human CLDN6. The method, then:
as §1

B1: mouse anti-CLDN6 antibody B1 (antibody, V domains shown)
VH: EVQLQQSGPELVKPGASVKISCKTSGYTFTEYTMHWVQQSHGKSLEWIGGVNPNSGDTSYNQKFKGKATLTVDKSSSTAYMELRSLTSEDSAVYYCARPGGYDVGYYAMDYWGQGTSVTVSS
VL: DIQMTQTASSLSASLGDRVTISCRASQDINNYLNWYQQKPDGTVKLLIYFTSRLHSGVPSRFSGSGSGTHYSLTITNLEQEDIATYFCQQGYPLPWTFGGGTKLEIK
notes: Mouse monoclonal antibody purified from the culture supernatant of hybridoma 218B1; a mouse IgG1 was used as the control; also called B1 antibody; 218B1
For B1, the binding result with human CLDN9 is listed as “binds”; in the test with human CLDN4, “no binding”; in the test with human CLDN6 [1] it was “binds”; with human CLDN3 it was “no binding”.

B2: mouse anti-CLDN6 antibody C7 (antibody, V domains shown)
VH: EVQLQQSGPELVKPGASVKISCKTSGYTFTEYTMHWVQQSHGKSLEWIGGVNPNSGDTSYNQKFKGKATLTVDKSSSTAYMELRSLTSEDSAVYYCARPGGYDVGYYAMDYWGQGTSVTVSS
VL: DIQMTQTASSLSASLGDRVTISCRASQDINNYLNWYQQKPDGTVKLLIYSTSRLHSGVPSRFSGSGSGTHYSLTITHLEQEDIATYFCQQGYPLPWTFGGGTKLEIK
notes: Mouse monoclonal antibody purified from the culture supernatant of hybridoma 218C7; also called C7 antibody; 218C7
Regarding B2, the binding result with human CLDN9 is recorded as “binds”; with human CLDN4, “no binding”; with human CLDN6 [2] it was “binds”; with human CLDN3, “no binding”.

B3: humanized anti-CLDN6 antibody H1L3 (antibody, human IgG1, kappa, L234A L235A, V domains shown)
VH: QVQLVQSGAEVKKPGASVKVSCKASGYTFTEYTMHWVRQAPGQGLEWMGGVNPNSGDTSYAQKFQGRVTITADTSTSTAYMELSSLRSEDTAVYYCARPGGYDVGYYAMDYWGQGTLVTVSS
VL: DIQMTQSPSSLSASVGDRVTITCRASQDINNYLNWYQQKPGGAVKLLIYFTSRLHSGVPSRFSGSGSGTDYTLTISSLQPEDFATYYCQQGYPLPWTFGGGTKVEIKR
notes: Heavy chain hH1 with light chain hL3; Human IgG1 LALA constant region and human kappa light chain; also called H1L3 antibody
Consider B3, for which the binding result with human CLDN9 is listed as “binds”; with human CLDN4, “no binding (tested: 100 nM)”; with human CLDN3, “no binding (tested: 100 nM)”; in the test with human CLDN6 [3], “binds”.

B4: humanized anti-CLDN6 antibody H3L3 (antibody, human IgG1, kappa, L234A L235A, V domains shown)
VH: EVQLVQSGAEVKKPGASVKVSCKTSGYTFTEYTMHWVRQAPGQGLEWMGGVNPNSGDTSYAQKFQGRVTLTVDKSTSTAYMELSSLRSEDTAVYYCARPGGYDVGYYAMDYWGQGTLVTVSS
VL: DIQMTQSPSSLSASVGDRVTITCRASQDINNYLNWYQQKPGGAVKLLIYFTSRLHSGVPSRFSGSGSGTDYTLTISSLQPEDFATYYCQQGYPLPWTFGGGTKVEIKR
notes: Heavy chain hH3 with light chain hL3; Human IgG1 LALA constant region and human kappa light chain; also called H3L3 antibody
As for B4, the binding result in the test with human CLDN9 is “binds”; in the test with human CLDN4, “no binding (tested: 100 nM)”; in the test with human CLDN3, “no binding (tested: 100 nM)”; with human CLDN6 [3], “binds”.

B5: humanized anti-CLDN6 antibody H2L4 (antibody, human IgG1, kappa, L234A L235A, V domains shown)
VH: EVQLVQSGAEVKKPGASVKVSCKTSGYTFTEYTMHWVRQAPGKSLEWMGGVNPNSGDTSYAQKFQGRVTITADTSTSTAYMELSSLRSEDTAVYYCARPGGYDVGYYAMDYWGQGTLVTVSS
VL: DIQMTQSPSSLSASVGDRVTITCRASQDINNYLNWYQQKPGGAVKLLIYFTSRLHSGVPSRFSGSGSGTDYTLTISSLQPEDFATYYCQQGNTLPWTFGGGTKVEIKR
notes: Human IgG1 LALA constant region and human kappa light chain; also called H2L4 antibody
As to B5, the binding result is on record as “binds” with human CLDN9, “no binding (tested: 100 nM)” in the test with human CLDN4, “no binding (tested: 100 nM)” in the test with human CLDN3 and “binds” with human CLDN6 [3].

B6: humanized anti-CLDN6 antibody H2L2 (antibody, human IgG1, kappa, L234A L235A, V domains shown)
VH: EVQLVQSGAEVKKPGASVKVSCKTSGYTFTEYTMHWVRQAPGKSLEWMGGVNPNSGDTSYAQKFQGRVTITADTSTSTAYMELSSLRSEDTAVYYCARPGGYDVGYYAMDYWGQGTLVTVSS
VL: DIQMTQSPSSLSASVGDRVTITCRASQDINNYLNWYQQKPGKAVKLLIYFTSRLHSGVPSRFSGSGSGTHYTLTISSLQPEDFATYYCQQGYPLPWTFGQGTKVEIKR
notes: Heavy chain hH2 with light chain hL2; Human IgG1 LALA constant region and human kappa light chain; also called H2L2 antibody
Consider B6, for which the binding result was “binds” with human CLDN9, “no binding (tested: 100 nM)” in the test with human CLDN4, “no binding (tested: 100 nM)” in the test with human CLDN3 and “binds” with human CLDN6 [3].

B7: humanized anti-CLDN6 antibody H1L1 (antibody, human IgG1, kappa, L234A L235A, V domains shown)
VH: QVQLVQSGAEVKKPGASVKVSCKASGYTFTEYTMHWVRQAPGQGLEWMGGVNPNSGDTSYAQKFQGRVTITADTSTSTAYMELSSLRSEDTAVYYCARPGGYDVGYYAMDYWGQGTLVTVSS
VL: DIQMTQSPSSLSASVGDRVTITCRASQDINNYLNWYQQKPGKAPKLLIYFTSRLHSGVPSRFSGSGSGTDYTLTISSLQPEDFATYYCQQGYPLPWTFGQGTKVEIKR
notes: Heavy chain hH1 with light chain hL1; Human IgG1 LALA constant region and human kappa light chain; also called H1L1 antibody
For B7, the binding result was “binds” with human CLDN9, “no binding (tested: 100 nM)” with human CLDN4, “no binding (tested: 100 nM)” with human CLDN3 and “binds” with human CLDN6 [3].
